# Laboratory results: US20160082105A1, “Antibody Buffering of a Ligand in Vivo” (ARROWSMITH TECHNOLOGIES CORPORATION, priority 2004, published 2016)
# What was measured:
# [1] = Antibody buffering of lysozyme: total 14C-lysozyme in rat plasma; format: in vivo
# Procedure: (§1) Rats (300 g Sprague-Dawley males, Zivic Laboratories, Zelionople, Pa.) were implanted with a jugular vein cannula. The rats were freely moving throughout the experiment and were allowed access to food and water. Samples were prepared for infusion consisting of 43 μg ^14C-lysozyme with or without 450 μg D1.3 antibody. The volume was brought to 1 ml using sterile normal saline and the sample was incubated at 37° C. prior to use. The sample was infused through the jugular cannula over 5 minutes using an HP infusion pump. Following the infusion, the cannula was flushed with 0.2 ml of heparinized saline (250 units/ml) to reduce the risk of clotting. […] Blood samples (0.5 ml) were withdrawn from the cannula at various timepoints. The blood was immediately centrifuged to separate out the plasma. Plasma (0.1 ml) was mixed with 5 ml scintillation fluid and counted. Another 0.1 ml was used in bound vs. free lysozyme experiments described herein. The cellular pellet was mixed with scintillation fluid and counted also.
# Sprague-Dawley rats implanted with a jugular cannula were infused with 43 μg ^14C-lysozyme and either 450 μg or 900 μg of D1.3 antibody. The volume infused was brought up to 1 ml using sterile normal saline. The samples were prepared and infused and timepoints were taken and analyzed as described above. Bound vs. free separation analyses were not performed.
# Sprague-Dawley rats implanted with a jugular cannula were infused with 450 μg of D1.3 antibody and either 43 μg or 430 μg of ^14C-lysozyme. The samples were prepared, infused, and timepoints were taken and analyzed as described above.
# Two samples were prepared for infusion. The first sample, consisting of 450 μg D1.3 antibody diluted to 0.5 ml with sterile normal saline, was infused over 4 minutes using an HP infusion pump. The rat was allowed to move freely in its cage for 10 minutes to allow the antibody time to equilibrate within the circulation. Then the second sample, consisting of 43 μg ^14C-lysozyme made up to 0.5 ml using sterile normal saline, was infused over 4 minutes. The end of the second infusion was designated as time zero (0). Blood samples were taken and analyzed as described above.
# To determine the pharmacokinetic profile of lysozyme using a radioactive method of lysozyme detection, ^14C-lysozyme was infused through a jugular cannula into the bloodstream of a rat. Lysozyme elimination was followed through blood sampling at various time intervals spanning 4 hours. The plasma was collected after centrifugation and subjected to scintillation counting. […] Each rat in these and in the following studies was used only once to limit the possibility of an immune response to either the lysozyme or the antibody.
# [2] = Antibody buffering of lysozyme: free lysozyme in plasma after Protein A-Sepharose separation; format: in vivo, rat; details: lysozyme administered with D1.3, compared with lysozyme alone
# Procedure: as §1
# Following blood sample centrifugation to separate out the plasma, 0.1 ml of plasma was loaded onto a 1.5 ml Protein A-Sepharose mini-column. The column was washed with 3 ml of PBS in 0.5 ml increments followed by 3 ml of 100 mM citric acid in 0.5 ml increments. The PBS (free lysozyme) and citric acid (antibody-bound lysozyme) fractions were collected separately for each timepoint. […]
substance,measurement,setting,value
"lysozyme: hen egg lysozyme radioactively labeled with 14C, model protein ligand",plasma β-half life of lysozyme,"[1]; 14C-lysozyme administered alone, jugular infusion",16.4 min
same,radioactivity in the cellular pellet of blood,[1]; 14C-lysozyme alone or with D1.3,Little radioactivity
same,plasma β-half life of lysozyme,[1]; 14C-lysozyme with equimolar D1.3,42.8 min
same,plasma β-half life of lysozyme,[1]; 14C-lysozyme with two times the molar amount of D1.3,61.3 min
same,total lysozyme level in plasma at later timepoints relative to equimolar group,[1]; D1.3 with ten times the molar concentration of 14C-lysozyme,about twice as high
same,total lysozyme concentration in plasma after sequential administration,[1]; equimolar lysozyme infused ten minutes after D1.3,quickly equilibrated to a level very similar to that attained when the D1.3 and lysozyme were administered together
same,free lysozyme pool in plasma,[2],remained at a more constant level
